B1: full-length Xenopus Kid tagged with mScarlet (XKidFL-mScarlet) (natural protein, UniProt Q9I869 1-651, looked up)
chain: MVLTGPLQRESVSMAKRVSMLDQHKKSSCARVRVAVRLRPYMDEKDEAKATTVCVRGLDSQSLEIVNWRNQLETMQYQFDAFYGDSASQREIYMGSVCHILPHLLIGQNASVFAYGPTGAGKTHTMLGNPNQPGVIPRAVRDLLQMSRTAASAPENENWTYTINMSYVEIYQEKVMDLLEPKNKDLPIREDKDHNILIPGVTQKMINSFADFDEHFIPASQNRTVASTKLNDRSSRSHAVLLIKVQKSQQVVPFRQLTGKLYLIDLAGSEDNRRTGNQGIRLKESGAINSSLFTLSKVVDALNQGLPRIPYRDSKLTRLLQDSLGGSAHSVMITNIAPEQTYYFDTLTALNFAAKSKQIINKPFSQETTQTVVQPAMKRPREETGHIAGSQKRKKSKNDSTESSPNSSMDTAGKQKLNLATLDPAVVERLLKLDKILTEKGKKKAQLLSTPKRERMALLKKWEESQMEIERLKEKQKELEQKAMEAEARLEKSNNSDLSDSSVSENTFRAPLRGRNTSTAKVKKVLRVLPMQGNSQLQSTVEEGIPVFEKKKKKKQVTCEGLENQPTWEMNMRTDLLESGKERILKLLNTGSVKELKSLQRIGDKKAKLIIGWREVNGPFKNVEELACLEGISAKQVSSFIKANIMSSIAS
notes: Kid (Kif22.S), Xenopus, full length; cDNA corresponding to GenBank BC070549.1; also called XKid-mScarlet; Full-length XKid; not shown: mScarlet, C-terminal, kept
B2: full-length human Kid tagged with mNeonGreen (hKidFL-mNeonGreen) (natural protein, UniProt Q14807 1-665, looked up)
chain: MAAGGSTQQRRREMAAASAAAISGAGRCRLSKIGATRRPPPARVRVAVRLRPFVDGTAGASDPPCVRGMDSCSLEIANWRNHQETLKYQFDAFYGERSTQQDIYAGSVQPILRHLLEGQNASVLAYGPTGAGKTHTMLGSPEQPGVIPRALMDLLQLTREEGAEGRPWALSVTMSYLEIYQEKVLDLLDPASGDLVIREDCRGNILIPGLSQKPISSFADFERHFLPASRNRTVGATRLNQRSSRSHAVLLVKVDQRERLAPFRQREGKLYLIDLAGSEDNRRTGNKGLRLKESGAINTSLFVLGKVVDALNQGLPRVPYRDSKLTRLLQDSLGGSAHSILIANIAPERRFYLDTVSALNFAARSKEVINRPFTNESLQPHALGPVKLSQKELLGPPEAKRARGPEEEEIGSPEPMAAPASASQKLSPLQKLSSMDPAMLERLLSLDRLLASQGSQGAPLLSTPKRERMVLMKTVEEKDLEIERLKTKQKELEAKMLAQKAEEKENHCPTMLRPLSHRTVTGAKPLKKAVVMPLQLIQEQAASPNAEIHILKNKGRKRKLESLDALEPEEKAEDCWELQISPELLAHGRQKILDLLNEGSARDLRSLQRIGPKKAQLIVGWRELHGPFSQVEDLERVEGITGKQMESFLKANILGLAAGQRCGAS
notes: Kid (KIF22), human, full length; cDNA corresponding to GenBank DQ895829.2; also called hKid-mNeonGreen; hKidFL-mNG; not shown: mNeonGreen, C-terminal, kept
B3: XKid(1-496)-mScarlet (domain or fragment, Xenopus, UniProt Q9I869 1-496, looked up)
chain: MVLTGPLQRESVSMAKRVSMLDQHKKSSCARVRVAVRLRPYMDEKDEAKATTVCVRGLDSQSLEIVNWRNQLETMQYQFDAFYGDSASQREIYMGSVCHILPHLLIGQNASVFAYGPTGAGKTHTMLGNPNQPGVIPRAVRDLLQMSRTAASAPENENWTYTINMSYVEIYQEKVMDLLEPKNKDLPIREDKDHNILIPGVTQKMINSFADFDEHFIPASQNRTVASTKLNDRSSRSHAVLLIKVQKSQQVVPFRQLTGKLYLIDLAGSEDNRRTGNQGIRLKESGAINSSLFTLSKVVDALNQGLPRIPYRDSKLTRLLQDSLGGSAHSVMITNIAPEQTYYFDTLTALNFAAKSKQIINKPFSQETTQTVVQPAMKRPREETGHIAGSQKRKKSKNDSTESSPNSSMDTAGKQKLNLATLDPAVVERLLKLDKILTEKGKKKAQLLSTPKRERMALLKKWEESQMEIERLKEKQKELEQKAMEAEARLEKSNNS
notes: deletion mutant made by PCR-based mutagenesis; also called XKid(1-497); not shown: mScarlet, C-terminal, kept
B4: KIF1A(1-393)LZ (other)
chain: MAGASVKVAVRVRPFNSREMSRDSKCIIQMSGSTTTIVNPKQPKETPKSFSFDYSYWSHTSPEDINYASQKQVYRDIGEEMLQHAFEGYNVCIFAYGQTGAGKSYTMMGKQEKDQQGIIPQLCEDLFSRINDTTNDNMSYSVEVSYMEIYCERVRDLLNPKNKGNLRVREHPLLGPYVEDLSKLAVTSYNDIQDLMDSGNKARTVAATNMNETSSRSHAVFNIIFTQKRHDAETNITTEKVSKISLVDLAGSERADSTGAKGTRLKEGANINKSLTTLGKVISALAEMDSGPNKNKKKKKTDFIPYRDSVLTWLLRENLGGNSRTAMVAALSPADINYDETLSTLRYADRAKQIRCNAVINEDPNNKLIRELKDEVTRLRDLLYAQGLGDITDLEDKVEELLSKNYHLENEVARL

Columns and labels:
[1] = target: KIF1AMD-XKidSt (chimera of the KIF1A motor domain with the neck linker and coiled-coil domain of XKid) (not stated | Xenopus); assay: SEC; Superdex 200 Increase 10/300 GL on an NGC system; micromolar protein concentrations; UNC-104(1-653)-sfGFP (or mScarlet for XKidCC-mScarlet) run as size marker
[2] = target: the molecule itself; assay: as above

Molecule | stoichiometry N [1] | stoichiometry N [2]
KIF1AMD-XKidSt (chimera of the KIF1A motor domain with the neck linker and coiled-coil domain of XKid) | 2 | –
B1 | – | 2
B2 | – | 2
B3 | – | 2
B4 | – | 2
